The values below come from PMC9595563.

The assay deals with SARS-CoV-2 spike protein (Wuhan-Hu-1) with C-terminal histidine, coated in the ELISA of Fig 2C (SARS-CoV-2) (UniProt P0DTC2). Put plainly: ELISA. (In general: In an ELISA, binding on a coated surface is turned into a signal by an enzyme label.)

LRRC15-Fc, sequence (Q8TF66 22-538): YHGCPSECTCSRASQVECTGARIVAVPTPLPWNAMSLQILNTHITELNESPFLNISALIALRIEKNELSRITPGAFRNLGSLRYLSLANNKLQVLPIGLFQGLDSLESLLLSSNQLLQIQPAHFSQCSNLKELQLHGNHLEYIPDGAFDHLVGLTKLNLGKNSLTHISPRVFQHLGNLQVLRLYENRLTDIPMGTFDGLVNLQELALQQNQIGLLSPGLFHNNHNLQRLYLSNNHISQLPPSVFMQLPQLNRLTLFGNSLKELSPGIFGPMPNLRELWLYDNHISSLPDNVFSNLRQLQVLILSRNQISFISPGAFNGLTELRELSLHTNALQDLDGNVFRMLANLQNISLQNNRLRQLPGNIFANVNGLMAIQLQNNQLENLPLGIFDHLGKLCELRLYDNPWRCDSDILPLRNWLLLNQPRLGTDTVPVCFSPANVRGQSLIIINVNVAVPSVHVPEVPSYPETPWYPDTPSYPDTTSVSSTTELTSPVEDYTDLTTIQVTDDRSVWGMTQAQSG

For orientation: Kd means the equilibrium constant for the complex coming apart. Substance “LRRC15-Fc (from UniProt Q8TF66) (Fc fusion)” gave an equilibrium dissociation constant (Kd) of 109 nM.
